Measured values taken from patent publication EP4763862A1 (Beijing Tide Pharmaceutical Co., Ltd., dated 2026).
Residue numbers refer to the chain shown, from its start.

B1: cAb1-z0-p7 (antibody, human IgG1, kappa, V domains shown)
VH: EVQLVESGGGLVKPGGSLRLSCAASGFTFSSYGMSWVRQAPGKGLEWVSSISGSGSYTYYPDSLKGRFTISRDNAKNSLYLQMNSLRAEDTAVYYCARQQGYWYFDVWGQGTTVTVSS
VL: DIVMTQTPLSLPVTPGEPASISCRASQSLASSYGKTYLSWYLQKPGQSPQLLIYGISNRFSGVPDRFSGSGSGTDFTLKISRVEAEDVGVYYCLHGTHQPLTFGQGTKLEIKR
notes: Humanized from 48-B4-F4-E4; Human IgG1 / kappa
B2: cAb1-z5-p7 (antibody, human IgG1, kappa, V domains shown)
VH: B1 VH with G44R, S49A
VL: B1 VL with I2V
notes: Humanized from 48-B4-F4-E4; Human IgG1 / kappa; also called cAbl-z5-p7

Tests used:
[1] = molecular target: T1, B7-H3 Cyno-His (cynomolgus monkey); experiment: SPR, Biacore 8K, antibody captured by anti-human IgG Fc on CM5, B7-H3 Cyno-His as analyte, 1:1 model
T1 construct: also called cynomolgus monkey B7-H3

[2] = molecular target: T2, B7-H3 on NCI-H446 cells (UniProt Q5ZPR3 29-534); experiment: flow cytometry on NCI-H446 cells, goat anti-human Fc secondary
T2 construct: whole, on cells
T2 sequence (looked up): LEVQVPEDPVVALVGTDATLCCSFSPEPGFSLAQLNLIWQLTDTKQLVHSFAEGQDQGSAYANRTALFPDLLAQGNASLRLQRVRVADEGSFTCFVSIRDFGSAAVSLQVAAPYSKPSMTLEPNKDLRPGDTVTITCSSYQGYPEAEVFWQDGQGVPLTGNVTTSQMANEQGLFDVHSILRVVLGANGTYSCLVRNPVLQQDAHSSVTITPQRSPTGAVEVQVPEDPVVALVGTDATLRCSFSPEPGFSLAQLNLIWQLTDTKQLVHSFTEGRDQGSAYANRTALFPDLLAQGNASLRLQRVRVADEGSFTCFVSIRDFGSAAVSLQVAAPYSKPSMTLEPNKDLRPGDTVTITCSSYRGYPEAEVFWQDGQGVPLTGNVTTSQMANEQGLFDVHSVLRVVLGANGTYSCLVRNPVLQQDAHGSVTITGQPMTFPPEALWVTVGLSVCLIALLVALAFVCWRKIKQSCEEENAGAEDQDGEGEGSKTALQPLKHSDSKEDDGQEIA

[3] = molecular target: T3, B7-H2 (UniProt O75144 19-258, limits assumed); experiment: ELISA, His-tagged antigen coated at 1 µg/mL, HRP-Protein A detection
T3 construct: not shown: His tag
T3 sequence (looked up): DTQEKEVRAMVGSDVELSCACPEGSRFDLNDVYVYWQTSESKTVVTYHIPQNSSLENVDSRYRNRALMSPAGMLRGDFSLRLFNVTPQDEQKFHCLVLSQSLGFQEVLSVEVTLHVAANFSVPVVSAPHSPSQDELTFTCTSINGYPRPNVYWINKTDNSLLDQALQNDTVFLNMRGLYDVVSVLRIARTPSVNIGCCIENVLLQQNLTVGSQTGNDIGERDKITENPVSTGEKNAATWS

[4] = molecular target: T4, B7-H4 (UniProt Q7Z7D3 29-258, limits assumed); experiment: as above
T4 construct: not shown: His tag
T4 sequence (looked up): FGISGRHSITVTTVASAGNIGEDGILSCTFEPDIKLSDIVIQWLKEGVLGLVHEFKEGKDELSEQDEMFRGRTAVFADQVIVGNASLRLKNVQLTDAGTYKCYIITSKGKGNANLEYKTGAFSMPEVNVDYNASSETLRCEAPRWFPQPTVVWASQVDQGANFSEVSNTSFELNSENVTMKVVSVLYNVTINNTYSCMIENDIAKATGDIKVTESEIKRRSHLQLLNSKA

[5] = molecular target: T5, B7-H5 (UniProt Q9H7M9 33-194); experiment: as above
T5 construct: The name B7-H5 is ambiguous in the literature; not shown: His tag
T5 sequence (looked up): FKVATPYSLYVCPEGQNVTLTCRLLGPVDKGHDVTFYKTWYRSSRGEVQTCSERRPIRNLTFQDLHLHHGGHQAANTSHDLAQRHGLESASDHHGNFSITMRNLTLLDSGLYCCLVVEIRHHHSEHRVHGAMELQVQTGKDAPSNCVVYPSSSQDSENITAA

[6] = molecular target: T6, B7-1 (UniProt P33681 35-242); experiment: as above
T6 construct: not shown: His tag
T6 sequence (looked up): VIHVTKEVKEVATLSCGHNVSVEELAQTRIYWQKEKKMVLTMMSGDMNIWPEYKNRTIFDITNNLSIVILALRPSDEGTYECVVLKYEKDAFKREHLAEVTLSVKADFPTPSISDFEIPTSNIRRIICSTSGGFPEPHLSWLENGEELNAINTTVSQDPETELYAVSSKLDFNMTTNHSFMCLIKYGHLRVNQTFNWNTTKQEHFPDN

[7] = molecular target: T7, hB7-H1 (PD-L1) (human, UniProt Q9NZQ7 19-238); experiment: as above
T7 construct: Species read from the printed prefix h; not shown: His tag

[8] = molecular target: T8, B7-H6 (UniProt Q68D85 25-262); experiment: as above
T8 construct: not shown: His tag
T8 sequence (looked up): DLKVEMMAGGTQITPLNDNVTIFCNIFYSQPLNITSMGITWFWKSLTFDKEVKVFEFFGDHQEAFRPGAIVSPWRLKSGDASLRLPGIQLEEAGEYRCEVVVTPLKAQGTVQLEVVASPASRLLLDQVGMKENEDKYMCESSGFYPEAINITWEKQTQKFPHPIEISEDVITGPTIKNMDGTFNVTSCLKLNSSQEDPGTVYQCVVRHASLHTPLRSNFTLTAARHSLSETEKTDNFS

[9] = molecular target: T9, B7-H7 (UniProt Q9UM44 23-344); experiment: as above
T9 construct: not shown: His tag
T9 sequence (looked up): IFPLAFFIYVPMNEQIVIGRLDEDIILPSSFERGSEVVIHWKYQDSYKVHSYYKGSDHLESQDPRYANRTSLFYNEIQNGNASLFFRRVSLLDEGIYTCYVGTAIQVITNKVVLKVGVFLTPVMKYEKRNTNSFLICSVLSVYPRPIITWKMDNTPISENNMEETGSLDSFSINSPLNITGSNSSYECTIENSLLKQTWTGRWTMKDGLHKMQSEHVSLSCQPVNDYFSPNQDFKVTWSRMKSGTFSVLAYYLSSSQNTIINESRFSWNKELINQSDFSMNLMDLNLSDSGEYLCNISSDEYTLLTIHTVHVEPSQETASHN

[10] = molecular target: T10, PD-L2 (UniProt Q9BQ51 20-219); experiment: as above
T10 construct: not shown: His tag
T10 sequence (looked up): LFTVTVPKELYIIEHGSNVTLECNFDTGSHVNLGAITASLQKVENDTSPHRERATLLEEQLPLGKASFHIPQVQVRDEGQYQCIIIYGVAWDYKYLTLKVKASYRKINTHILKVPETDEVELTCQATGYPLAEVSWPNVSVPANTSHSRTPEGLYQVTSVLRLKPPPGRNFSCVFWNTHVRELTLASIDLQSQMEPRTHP

[11] = molecular target: T11, B7-2 (UniProt P42081 26-247, limits assumed); experiment: as above
T11 construct: not shown: His tag
T11 sequence (looked up): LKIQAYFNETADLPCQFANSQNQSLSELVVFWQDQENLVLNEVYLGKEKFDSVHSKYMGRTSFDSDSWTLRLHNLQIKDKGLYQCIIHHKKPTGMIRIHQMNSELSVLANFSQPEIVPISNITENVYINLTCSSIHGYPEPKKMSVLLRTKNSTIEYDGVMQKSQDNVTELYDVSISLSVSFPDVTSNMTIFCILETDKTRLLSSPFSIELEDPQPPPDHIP

T7 sequence (Q9NZQ7 19-238 limits assumed): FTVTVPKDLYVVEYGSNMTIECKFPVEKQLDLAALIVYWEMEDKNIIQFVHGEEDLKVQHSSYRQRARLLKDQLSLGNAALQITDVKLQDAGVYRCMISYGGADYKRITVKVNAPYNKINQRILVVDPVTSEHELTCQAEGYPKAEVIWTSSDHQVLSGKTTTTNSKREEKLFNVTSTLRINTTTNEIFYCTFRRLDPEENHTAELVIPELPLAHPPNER

Binder | Kd [1] | koff [1] | kon [1] | EC50 [2] | binding result [3] | binding result [4] | binding result [5] | binding result [6] | binding result [7] | binding result [8] | binding result [9] | binding result [10] | binding result [11]
B1 | 7.86 nM | 7.68e-05 s⁻¹ | 9770 M⁻¹ s⁻¹ | 9.7 nM | no binding (tested: starting concentration 10 µg/ml) | no binding (tested: starting concentration 10 µg/ml) | no binding (tested: starting concentration 10 µg/ml) | no binding (tested: starting concentration 10 µg/ml) | no binding (tested: starting concentration 10 µg/ml) | no binding (tested: starting concentration 10 µg/ml) | no binding (tested: starting concentration 10 µg/ml) | no binding (tested: starting concentration 10 µg/ml) | no binding (tested: starting concentration 10 µg/ml)
B2 | 3.9 nM | 6.17e-05 s⁻¹ | 15800 M⁻¹ s⁻¹ | 3.69 nM | no binding (tested: starting concentration 10 µg/ml) | no binding (tested: starting concentration 10 µg/ml) | no binding (tested: starting concentration 10 µg/ml) | no binding (tested: starting concentration 10 µg/ml) | no binding (tested: starting concentration 10 µg/ml) | no binding (tested: starting concentration 10 µg/ml) | no binding (tested: starting concentration 10 µg/ml) | no binding (tested: starting concentration 10 µg/ml) | no binding (tested: starting concentration 10 µg/ml)
